Data taken from patent publication US20110064740A1.

Tests used:
[1] = target: Cell-surface full length amyloid precursor protein (APP) on HEK293T cells transfected with wild type APP DNA (UniProt P05067); assay: FMAT ABI8200, HEK293T cells transfected with wild type APP, mock subtracted; Experiment 2
[2] = target: Cell-surface full length amyloid precursor protein (APP) on HEK293T cells transfected with wild type APP DNA (UniProt P05067); assay: FMAT ABI8200, HEK293T cells transfected with wild type APP, mock subtracted; Experiment 1

Sequence of Cell-surface full length amyloid precursor protein (APP) on HEK293T cells transfected with wild type APP DNA (P05067 18-770): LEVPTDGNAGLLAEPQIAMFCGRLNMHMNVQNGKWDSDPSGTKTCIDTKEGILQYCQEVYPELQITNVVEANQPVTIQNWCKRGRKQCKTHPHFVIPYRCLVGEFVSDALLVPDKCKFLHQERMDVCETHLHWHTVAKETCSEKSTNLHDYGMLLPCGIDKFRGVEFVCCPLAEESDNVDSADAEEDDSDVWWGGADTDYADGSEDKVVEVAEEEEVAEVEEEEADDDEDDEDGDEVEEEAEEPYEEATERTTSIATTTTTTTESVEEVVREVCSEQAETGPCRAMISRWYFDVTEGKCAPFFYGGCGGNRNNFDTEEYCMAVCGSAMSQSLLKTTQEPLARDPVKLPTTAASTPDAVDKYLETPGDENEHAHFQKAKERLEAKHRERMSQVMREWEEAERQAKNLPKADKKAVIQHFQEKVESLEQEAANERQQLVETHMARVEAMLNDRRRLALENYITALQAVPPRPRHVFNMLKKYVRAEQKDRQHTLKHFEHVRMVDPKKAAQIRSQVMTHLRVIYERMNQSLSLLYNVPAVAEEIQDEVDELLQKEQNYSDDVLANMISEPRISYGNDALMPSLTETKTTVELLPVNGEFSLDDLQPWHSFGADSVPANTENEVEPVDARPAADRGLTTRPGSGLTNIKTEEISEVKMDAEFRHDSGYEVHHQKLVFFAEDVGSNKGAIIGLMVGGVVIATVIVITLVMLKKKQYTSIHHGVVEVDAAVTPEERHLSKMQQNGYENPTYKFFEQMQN

| Substance | % of LN27 binding [1] | % of LN27 binding [2] |
| --- | --- | --- |
| LN27 (Zymed) mouse IgG to extracellular domain of APP (antibody) | 100% | 100% |
| Antibody G210 which recognises the x-40 form of the β-amyloid peptide | 2% | 5.5% |
